{
  "source": "patent US20150290107A1",
  "about": "“COMPOSITIONS FOR TREATMENT OF XEROSTOMIA AND FOR TOOTH TREATMENT” (3 IN 1 DENTAL PLLC, priority 2013, published 2015)",
  "origin": "cited, not measured here",
  "system": "lean meat",
  "details": "usual grade",
  "data": [
    {"molecule": "Papain (protein, UniProt P00784 134-345, looked up, Protease enzyme; white or grayish-white, slightly hygroscopic powder) Papain: IPEYVDWRQKGAVTPVKNQGSCGSCWAFSAVVTIEGIIKIRTGNLNEYSEQELLDCDRRSYGCNGGYPWSALQLVAQYGIHYRNTYPYEGVQRYCRSREKGPYAAKTDGVRQVQPYNEGALLYSIANQPVSVVLEAAGKDFQLYRGGIFVGPCGNKVDHAVAAVGYGPNYILIKNSWGTGWGENGYIRIKRGTGNSYGVCGLYTSSFYPVKN", "values": [
      {"measurement": "potency: digesting times its weight of lean meat", "value": "~35", "unit": "times its weight"}
    ]}
  ]
}
